Several values for one entry are separate records, joined by “and”; a condition that tells them apart may be missing. Identical values can stand only once.
Experiments:
[1] = target: severe acute respiratory syndrome (SARS) coronavirus papain-like protease (PLpro), wild type (SARS coronavirus) (UniProt P0C6X7)
[2] = target: severe acute respiratory syndrome (SARS) coronavirus papain-like protease (PLpro), wild type (SARS coronavirus) (UniProt P0C6X7); test: inhibition of AMC substrate cleavage

ISG15-AMC
KM of ISG15-AMC cleavage [1]: 15.9 µM
apparent kcat/KM of ISG15-AMC cleavage (Michaelis-Menten kinetics) [1]: 598000 M⁻¹ s⁻¹

Lys48-linked tri-ubiquitin (triUb^Lys48), free chain (from UniProt P0CG48 1-76) (complex)
Ki [2]: 10.6 µM and 10.1 µM and 4.08 µM

monoUb-AMC (from UniProt P0CG48 1-76)
KM of monoUb-AMC cleavage [1]: 15.1 µM
apparent kcat/KM of monoUb-AMC cleavage (Michaelis-Menten kinetics) [1]: 33300 M⁻¹ s⁻¹

triazole-linked diUb^Lys48-AMC (from UniProt P0CG48) (complex)
KM of triazole-linked diUb^Lys48-AMC cleavage [1]: 33.4 µM
